Data published in publication doi:10.1101/2024.12.16.628611.

Target: His6-BacA_(F134R), purified (Asticcacaulis biprosthecum)
Experiment: SEC; 500 μl of purified protein from the polymerization assay (Buffer C) on Superdex 200 Increase 10/300 GL, calibrated with standard proteins

His6-BacA_(F134R), purified (natural protein)
stoichiometry N: 2
